{"source": "patent US20240034813A1", "about": "(Janssen / Centocor, published 2024)", "binders": {"B1": {"name": "amivantamab (bispecific antibody, human IgG1, kappa)", "heavy 1": "not shown", "light 1": "not shown", "heavy 2": "not shown", "light 2": "DIQMTQSPSSVSASVGDRVTITCRASQGISNWLAWFQHKPGKAPKLLIYAASSLLSGVPSRFSGSGSGTDFTLTISSLQPEDFATYYCQQANSFPITFGQGTRLEIKRTVAAPSVFIFPPSDEQLKSGTASVVCLLNNFYPREAKVQWKVDNALQSGNSQESVTEQDSKDSTYSLSSTLTLSKADYEKHKVYACEVTHQGLSSPVTKSFNRGEC", "notes": "The samples tested were high concentration (160 mg/mL) formulations, fresh or stored or stressed; also called JNJ-61186372; bispecific EGFR-cMet antibody"}}, "key": {"[1]": {"molecular_target": "T1, recombinant human EGFR/ErbB1/HER1 with C-terminal His tag, Cy5-labeled (human, UniProt P00533 25-645, Cy5 label (reacted with Cy5 Mono NHS Ester; sites not stated))", "T1 construct": "Commercial protein; also called Cy5-EGFR; Cy5-labeled EGFR antigen; not shown: C-terminal His tag", "test": "competitive TR-FRET (Eu-amivantamab/Cy5-EGFR), EC50 ratio vs Reference Material; Ex. 2 Formulation 1 (10 mM histidine), 3 months at 5 C", "text": "(§1) In this procedure, varying concentrations of unlabeled bispecific EGFR-cMet antibody sample compete with donor fluorophore (Europium (Eu) chelate) labeled bispecific EGFR-cMet antibody for binding to an acceptor fluorophore (Cy5)-labeled EGFR antigen. Excitation of the donor fluorophore results in a transfer of energy to the bound acceptor fluorophore (FRET process). The resultant FRET is detected by emission of light at 665 nm using a microplate reader capable of measuring time-resolved fluorescence. Sample dose response curves are compared to the RM.\n(§2) EGFR Binding Materials and Methods. Certified commercial EGFR, a recombinant human EGFR/ErbB1/HER1 with C-terminal His tag is reacted with certified commercial Cy5 Mono NHS Ester to produce Cy5-labeled EGFR. Validated bispecific EGFR-cMet antibody is reacted with certified commercial Europium (Eu) chelate to produce Eu-labeled bispecific EGFR-cMet antibody. […] Fluorescence is then measured by spectrophotometry at 665 nm, plotted against antibody concentration and analyzed by a four-parameter logistic model. The antibody concentration required to obtain half of the maximum fluorescence response (EC50) is determined for RM, assay control and samples. The potencies of assay control and samples are calculated based on the ratio of the sample (or control) and RM EC50 values and reported as a percentage activity relative to the RM."}, "[2]": {"molecular_target": "T2, recombinant cMet/HGFR with c-terminal His-tag, Cy5-labeled (UniProt P08581 25-932, limits assumed, Cy5 label (reacted with Cy5 Mono NHS Ester; sites not stated))", "T2 construct": "Commercial protein; also called Cy5-c-MET; Cy5-labeled c-MET antigen; not shown: C-terminal His-tag", "test": "competitive TR-FRET (Eu-amivantamab/Cy5-c-MET), EC50 ratio vs Reference Material; Ex. 12 drug product with rHuPH20, 0 months, 5 C table", "text": "(§3) In this procedure, varying concentrations of unlabeled bispecific EGFR-cMet antibody sample compete with donor fluorophore (Europium (Eu) chelate) labeled bispecific EGFR-cMet antibody for binding to an acceptor fluorophore (Cy5)-labeled c-MET antigen. Excitation of the donor fluorophore results in a transfer of energy to the bound acceptor fluorophore (FRET process). The resultant FRET is detected by emission of light at 665 nm using a microplate reader capable of measuring time-resolved fluorescence. Sample dose response curves are compared to the Reference Material (RM).\nas §2, with “c-MET Binding” for “EGFR Binding”, “commercial cMet,” for “commercial EGFR,”, “recombinant cMet/HGFR” for “recombinant human EGFR/ErbB1/HER1”, “with c-terminal His-tag” for “with C-terminal His tag”, “Cy5-labeled c-MET.” for “Cy5-labeled EGFR.”, “produce Eu labeled” for “produce Eu-labeled”"}, "[3]": {"molecular_target": "T1, recombinant human EGFR/ErbB1/HER1 with …", "test": "competitive TR-FRET (Eu-amivantamab/Cy5-EGFR), EC50 ratio vs Reference Material; Ex. 3 acetate formulation, 6 months at 25 C then 5 freeze/thaw cycles", "text": "as §1, §2"}, "[4]": {"molecular_target": "T1, recombinant human EGFR/ErbB1/HER1 with …", "test": "competitive TR-FRET (Eu-amivantamab/Cy5-EGFR), EC50 ratio vs Reference Material; Ex. 12 drug product with rHuPH20, 3 months at 5 C", "text": "as §1, §2"}, "[5]": {"molecular_target": "T2, recombinant cMet/HGFR with c-terminal …", "test": "competitive TR-FRET (Eu-amivantamab/Cy5-c-MET), EC50 ratio vs Reference Material; Ex. 2 Formulation 3 (acetate), 3 months at 40 C", "text": "as §3\nas §2, with “c-MET Binding” for “EGFR Binding”, “commercial cMet,” for “commercial EGFR,”, “recombinant cMet/HGFR” for “recombinant human EGFR/ErbB1/HER1”, “with c-terminal His-tag” for “with C-terminal His tag”, “Cy5-labeled c-MET.” for “Cy5-labeled EGFR.”, “produce Eu labeled” for “produce Eu-labeled”"}, "[6]": {"molecular_target": "T1, recombinant human EGFR/ErbB1/HER1 with …", "test": "competitive TR-FRET (Eu-amivantamab/Cy5-EGFR), EC50 ratio vs Reference Material; Ex. 2 Formulation 3 (acetate), T0, 40 C table", "text": "as §1, §2"}, "[7]": {"molecular_target": "T1, recombinant human EGFR/ErbB1/HER1 with …", "test": "competitive TR-FRET (Eu-amivantamab/Cy5-EGFR), EC50 ratio vs Reference Material; Ex. 12 drug product with rHuPH20, 3 months at 40 C", "text": "as §1, §2"}, "[8]": {"molecular_target": "T1, recombinant human EGFR/ErbB1/HER1 with …", "test": "competitive TR-FRET (Eu-amivantamab/Cy5-EGFR), EC50 ratio vs Reference Material; Ex. 12 drug product with rHuPH20, 6 months at 5 C", "text": "as §1, §2"}}, "data": [{"binder": "B1", "values": [{"measurement": "EGFR Binding % activity relative to RM", "setting": "[1]", "result": 102, "unit": "%"}, {"measurement": "cMET Binding activity relative to Reference Material (%)", "setting": "[2]", "result": 91, "unit": "%"}, {"measurement": "EGFR Binding % activity relative to RM", "setting": "[3]", "result": 95, "unit": "%"}, {"measurement": "EGFR Binding activity relative to Reference Material (%)", "setting": "[4]", "result": 82, "unit": "%"}, {"measurement": "cMET Binding % activity relative to RM", "setting": "[5]", "result": 85, "unit": "%"}, {"measurement": "EGFR Binding % activity relative to RM", "setting": "[6]", "result": 103, "unit": "%"}, {"measurement": "EGFR Binding activity relative to Reference Material (%)", "setting": "[7]", "result": 9, "unit": "%"}, {"measurement": "EGFR Binding activity relative to Reference Material (%)", "setting": "[8]", "result": 89, "unit": "%"}]}]}
